Reference: article PMC11722252

Target: Caenorhabditis elegans leucine-rich-repeat-containing GPCR (CeLGR), residues Gln31 to Arg712 (Caenorhabditis elegans) (UniProt G5EG04)
Assay: MST

Substance: C. elegans α2/β5 heterodimeric hormone (Ceα2β5) (from UniProt A7DT38 20-125) (complex)
- Kd: 153 nM
